# Key:
# [1] = system: GST-MADD70A (S70A)
# [2] = system: GST-wtMADD (bacterially expressed, purified)
# [3] = system: GST-MADD1041A (T1041A)
# [4] = system: GST-MADD173A (T173A)
substance,measurement,setting,value
recombinant Akt (rAkt; protein kinase B),in vitro phosphorylation (32P autoradiography),[1],"The phosphorylation levels of MADD mutants including MADD70A, MADD173A and MADD1041A were reduced or absent"
same,in vitro phosphorylation (32P autoradiography),[2],recombinant wild-type MADD (wtMADD) was phosphorylated by Akt
same,in vitro phosphorylation (32P autoradiography),[3],"The phosphorylation levels of MADD mutants including MADD70A, MADD173A and MADD1041A were reduced or absent"
same,in vitro phosphorylation (32P autoradiography),[4],"The phosphorylation levels of MADD mutants including MADD70A, MADD173A and MADD1041A were reduced or absent"
